EP4527849A1 (Universitätsmedizin der Johannes Gutenberg-Universität Mainz, dated 2025)

Experiments:
full-length murine PD-L1 = target: T1, full-length murine PD-L1 (murine, UniProt Q9EP73 19-290); assay: IFNg-ELISPOT; TCR-transduced T cells on 293T B2M/CIITA knockout cells transfected with full-length murine PD-L1
T1 construct: whole, on cells; also called mPD-L1; murine homologue of PD-L1

[1] = target: T2, human PD-L1 (Programmed death-ligand 1) (human, UniProt Q9NZQ7 19-290); assay: IFNg-ELISPOT on 293T B2M/CIITA knockout cells transfected with full-length or single-domain PD-L1 constructs; binding inferred from recognition
T2 construct: No signal peptide limits are stated; also called CD274; B7-H1

[2] = target: T2, human PD-L1 (Programmed death-ligand 1); assay: IFNg-ELISPOT with TCR-transduced T cells and blocking anti-PD-L1 antibodies; binding inferred from recognition

T2 sequence (Q9NZQ7 19-290 limits assumed): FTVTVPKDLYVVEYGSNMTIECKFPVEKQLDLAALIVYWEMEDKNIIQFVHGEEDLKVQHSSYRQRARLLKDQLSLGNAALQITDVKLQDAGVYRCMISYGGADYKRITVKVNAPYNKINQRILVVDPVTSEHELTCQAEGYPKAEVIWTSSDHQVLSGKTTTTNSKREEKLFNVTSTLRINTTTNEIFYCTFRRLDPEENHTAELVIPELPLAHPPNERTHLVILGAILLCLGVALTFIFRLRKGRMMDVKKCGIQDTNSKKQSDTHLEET
T1 sequence (Q9EP73 19-290): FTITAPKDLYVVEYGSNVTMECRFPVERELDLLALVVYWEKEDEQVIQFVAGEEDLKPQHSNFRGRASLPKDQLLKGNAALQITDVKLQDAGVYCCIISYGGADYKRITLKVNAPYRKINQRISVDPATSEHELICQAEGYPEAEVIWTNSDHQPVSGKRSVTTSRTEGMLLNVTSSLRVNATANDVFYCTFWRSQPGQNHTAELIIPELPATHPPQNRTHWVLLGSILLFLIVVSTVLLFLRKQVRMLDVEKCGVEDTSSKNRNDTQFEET

| binding result (full-length murine PD-L1) | Binder | binding result [1] | binding result [2] |
| --- | --- | --- | --- |
| no binding | chimerized TCR construct 11C/25 (TCR, V domains shown, In the assays the TCR stood as an alpha/beta heterodimer on transduced human T cells whose endogenous TCR was knocked out; also called cTCR 11C/25; TCR 11C/25) V domain 1: EAQVTQNPRYLITVTGKKLTVTCSQNMNHEYMSWYRQDPGLGLRQIYYSMNVEVTDKGDVPEGYKVSRKEKRNFPLILESPSPNQTSLYFCASSLSPAPPSIWSYNEQFFGPGTRLTVLE V domain 2: AQSVTQLDSQVPVFEEAPVELRCNYSSSVSVYLFWYVQYPNQGLQLLLKYLSGSTLVKGINGFEAEFNKSQTSFHLRKPSVHISDTAEYFCAVSKLAGRRALTFGSGTRLQVQP | binds | – |
| no binding | chimerized TCR construct 11C/34 (TCR, V domains shown, In the assays the TCR stood as an alpha/beta heterodimer on transduced human T cells whose endogenous TCR was knocked out; also called cTCR 11C/34; TCR 11C/34) V domain 1: EPEVTQTPSHQVTQMGQEVILRCVPISNHLYFYWYRQILGQKVEFLVSFYNNEISEKSEIFDDQFSVERPDGSNFTLKIRSTKLEDSAMYFCASSLRLGWIPGNEQFFGPGTRLTVLE V domain 2: AQSVTQPDIHITVSEGASLELRCNYSYGATPYLFWYVQSPGQGLQLLLKYFSGDTLVQGIKGFEAEFKRSQSSFNLRKPSVHWSDAAEYFCAVGFMDSSYKLIFGSGTRLLVRP | – | binds |
